Source: patent publication US20250051433A1 (INMAGENE PTE, published 2025)

Experiments:
[1] = biological target: T1, human long form TSLP expressed on cell membrane; test: FACS on cells expressing the membrane human long-form TSLP fusion protein, MFI; rising binding curve, but the table column is headed IC50; unit taken from the concentration axis
T1 construct: also called membrane long-form huTSLP fusion protein; membrane long-form TSLP fusion protein

[2] = biological target: T1, human long form TSLP expressed on cell …; test: FACS on cells expressing the membrane human long-form TSLP fusion protein, MFI; unit taken from the concentration axis
[3] = biological target: T2, mouse long-form TSLP protein (ACRO, tsp-m52h8) (mouse, UniProt Q9JIE6 20-140); test: ELISA on coated mouse long-form TSLP
T2 construct: Bought; also called mouse TSLP
T2 sequence (looked up): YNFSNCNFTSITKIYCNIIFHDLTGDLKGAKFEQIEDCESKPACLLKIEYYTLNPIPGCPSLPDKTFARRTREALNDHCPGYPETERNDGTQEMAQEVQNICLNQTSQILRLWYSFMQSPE

[4] = biological target: T1, human long form TSLP expressed on cell …; test: FACS on cells expressing the membrane human long-form TSLP fusion protein, MFI; unit taken from the concentration axis; remark: listed apart in the source
[5] = biological target: T3, membrane short-form huTSLP fusion protein (human); test: FACS on cells expressing membrane short-form huTSLP, MFI; ambiguous fit of a flat curve (Bottom 778.2, Top 872.2), see non_binding; unit taken from the concentration axis
T3 construct: also called human short form TSLP expressed on cell membrane
T3 sequence (chain, as listed by the source limits assumed): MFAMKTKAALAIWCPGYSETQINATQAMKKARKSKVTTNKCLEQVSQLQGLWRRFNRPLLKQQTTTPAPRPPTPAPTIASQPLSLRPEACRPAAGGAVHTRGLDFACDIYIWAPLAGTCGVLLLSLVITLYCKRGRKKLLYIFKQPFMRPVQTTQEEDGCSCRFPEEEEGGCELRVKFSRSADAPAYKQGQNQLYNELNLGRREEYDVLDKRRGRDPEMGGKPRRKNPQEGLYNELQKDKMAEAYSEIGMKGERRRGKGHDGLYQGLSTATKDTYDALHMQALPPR

[6] = biological target: T4, cynomolgus long-form TSLP protein (ACRO, tsp-c52h8) (cynomolgus monkey, UniProt A0A7N9CAT7 29-159); test: ELISA on coated cynomolgus long-form TSLP, OD450; curve still rising at the highest concentration (about 1.2 at about 20 µg/mL, fitted Top 1.343); unit taken from the concentration axis
T4 construct: also called monkey long-form TSLP; Cyno TSLP
T4 sequence: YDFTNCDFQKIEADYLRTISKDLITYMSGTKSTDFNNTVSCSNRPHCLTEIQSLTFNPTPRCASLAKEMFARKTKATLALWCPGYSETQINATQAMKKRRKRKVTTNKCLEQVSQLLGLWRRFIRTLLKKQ

[7] = biological target: T1, human long form TSLP expressed on cell …; test: FACS on cells expressing the membrane human long-form TSLP fusion protein, MFI; unit taken from the concentration axis; remark: listed apart in the source
[8] = biological target: T1, human long form TSLP expressed on cell …; test: as above; remark: listed apart in the source

T1 sequence (chain, as listed by the source): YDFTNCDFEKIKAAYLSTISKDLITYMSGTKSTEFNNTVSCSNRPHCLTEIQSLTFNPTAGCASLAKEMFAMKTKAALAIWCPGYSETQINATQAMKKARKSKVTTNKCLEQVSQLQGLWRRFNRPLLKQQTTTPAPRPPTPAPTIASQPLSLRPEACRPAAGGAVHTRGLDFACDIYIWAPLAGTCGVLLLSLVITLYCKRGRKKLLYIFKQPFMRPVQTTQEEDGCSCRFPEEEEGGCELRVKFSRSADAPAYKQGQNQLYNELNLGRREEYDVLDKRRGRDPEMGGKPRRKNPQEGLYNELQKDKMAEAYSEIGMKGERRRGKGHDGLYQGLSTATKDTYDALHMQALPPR

B1: AMG 157 (antibody, human IgG2, lambda, V domains shown)
VH: QMQLVESGGGVVQPGRSLRLSCAASGFTFRTYGMHWVRQAPGKGLEWVAVIWYDGSNKHYADSVKGRFTITRDNSKNTLNLQMNSLRAEDTAVYYCARAPQWELVHEAFDIWGQGTMVTVSS
VL: SYVLTQPPSVSVAPGQTARITCGGNNLGSKSVHWYQQKPGQAPVLVVYDDSDRPSWIPERFSGSNSGNTATLTISRGEAGDEADYYCQVWDSSSDHVVFGGGTKLTVLG
notes: also called BMK; benchmark
- EC50 [1]: 0.515 µg/mL
- EC50 [2]: 0.219 µg/mL
- binding result [3]: no binding (tested: about 20 µg/mL)
- EC50 [4]: 0.156 µg/mL
- EC50 [5]: ~13.5 µg/mL
- EC50 [6]: 1.24 µg/mL
- EC50 [7]: 0.0466 µg/mL
- EC50 [8]: 0.0712 µg/mL
